Patent US20170298119A1
Substitutions are numbered along the chain they refer to.

Target: ZIKV strain MR766 (E protein on infectious virus) (Zika virus strain MR766) (UniProt Q32ZE1)
Assay: cell-based or functional assay

B1: ZC6 (antibody, V domains shown)
VH: QVQLVQSGAEVKKPGASVKVSCKASGYSFTTYGISWVRQAPGQGLEWMGVIYPRSGNTYYAQKLQGRVTMTTDTSTSTAYMELRSLRSDDTAVYYCARENYGSVYWGQGTLVTVSS
VL: DIQMTQSPSSLSASVGDRVTITCKASQSVGTAVAWYQQKPGKAPKLLIYSASNRYTGVPSRFSGSGSGTDFTLTISSLQPEDFATYFCQQFSNYPFTFGGGTKVEIK
in vitro neutralization EC50 (foci counted on Vero cells): < 0.02 µg/mL

B2: ZC1 (antibody, V domains shown)
VH: QVQLVQSGAEVKKPGASVKVSCKASGYTFTSYGISWVRQATGQGLEWMGVIYPRSGNTYYAEKFRGRVTMTADKSISTAYMELSSLRSEDTAVYYCARENYGSVYWGQGTLVTVSS
VL: EIVMTQSPATLSVSPGERATLSCRASQSVGTAVAWYQQKPGQAPRLLIYSASNRYTGIPARFSGSGSGTEFTLTISSLQSEDFADYFCQQFYNYPFTFGGGTKVEIK
in vitro neutralization EC50 (foci counted on Vero cells): < 0.02 µg/mL

B3: ZC9 (antibody, V domains shown)
VH: B1 VH with S28T, T31S
VL: B2 VL
in vitro neutralization EC50 (foci counted on Vero cells): < 0.02 µg/mL

B4: ZC5 (antibody, V domains shown)
VH: B1 VH
VL: B2 VL
in vitro neutralization EC50 (foci counted on Vero cells): < 0.02 µg/mL
